# Test results reported in the supplement of paper PMC10567573.
# B1: GMCL1 (parent)
# chain: FCYCAGSHKRKRSSGSFCYCHPDS
# B2: FAM9B (parent)
# chain: EDLTAKRKRMKMDKTCSKTKNKSK
# Variants of: B1
# Assay: protein stability index of a GFP-peptide fusion (GPS, HEK-293T) (PSI 1-6); higher = more stable
# Settings: c terminus: a fixed tail appended
# 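Further: lentivirally expressed fusions sorted by FACS into six bins by GFP to DsRed ratio, PSI derived from sequencing read proportions per bin multiplied by bin number.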
row,Variant,protein stability index
1,C2F,2.25
2,C2E,2.05
3,C2A,2.76
4,C2D,2.79
5,F1K,3.78
6,F1D,4.2
7,F1Q,3.82
8,F1N,3.81
9,F1A,4.19
10,F1E,4.31
11,F1I,3.79
12,F1V,3.65
13,F1W,1.91
14,F1Y,1.55
15,F1T,3.34
16,F1L,2.8
17,F1R,3.85
18,F1P,4.21
19,F1C,4.1
20,F1M,3.46
21,F1S,3.78
22,F1H,3.17

# Variants of: B2
# Assay: as above
# Settings: c terminus: a fixed tail appended
row,Variant,protein stability index
1,K8W,4.77
2,K8T,4.97
3,K8H,4.97
4,K8S,5.39
5,K8P,5.5
6,K8I,4.4
7,K8Q,3.39
8,K8R,5.15
9,K8V,5.13
10,K8L,4.38
11,K8N,5.53
12,K8G,4.75
13,K8Y,4.33
14,D13G,5.48
15,D13N,5.3
16,D13K,4.7
17,D13L,4.77
18,D13F,4.26
19,D13Q,5.41
20,D13W,4.8
21,D13T,5.01
22,D13P,4.66
23,D13E,5.57
24,D13C,4.33

row,Variant,protein stability index
1,D13S,4.89
2,D13I,4.89
3,D13R,4.49
4,D13A,4.99
5,D13M,3.91
6,D13V,5.36
7,D13Y,5.14
8,D13H,4.64
9,T15R,4.88
10,T15Q,5.42
11,T15S,4.24
12,T15N,5.33
13,T15D,4.91
14,T15Y,5
15,T15V,4.9
16,T15H,4.6
17,T15C,5.36
18,T15A,5
19,T15L,5.07
20,T15K,4.48
21,T15G,4.55
22,T15F,4.8
23,T15W,4.78
24,T15P,5

row,Variant,protein stability index
1,T15M,5.11
2,T15I,5.12
3,T15E,5.2
4,K20L,4.96
5,K20D,4.9
6,K20Y,4.43
7,K20S,4.84
8,K20V,4.32
9,K20E,5.07
10,K20C,4.57
11,K20A,4.94
12,K20H,5.24
13,K20T,5.25
14,K20F,4.46
15,K20Q,5.15
16,K20W,4.47
17,K20P,4.75
18,K20N,4.87
19,K20G,5.06
20,K20I,4.75
21,K20R,4.76
22,K20M,4.57
23,K11W,4.83
24,K11T,4.49

row,Variant,protein stability index
1,K11R,4.97
2,K11F,5.02
3,K11L,4.62
4,K11A,5.04
5,K11P,5.16
6,K11G,5.19
7,K11S,4.79
8,K11V,5.08
9,K11Q,5.02
10,K11H,5.38
11,K11C,4.9
12,K11Y,4.26
13,K11N,4.45
14,K11E,5.29
15,K11I,4.47
16,K11M,4.21
17,K11D,5.22
18,S17T,5.32
19,S17Q,5.34
20,S17W,5.02
21,S17N,5.85
22,S17V,4.88
23,S17H,4.8
24,S17K,4.55

row,Variant,protein stability index
1,S17A,4.7
2,S17I,5.21
3,S17P,4.93
4,S17M,5.39
5,S17E,5.73
6,S17Y,5.08
7,S17C,5.05
8,S17G,5.02
9,S17F,4.24
10,M10H,5.43
11,M10V,5.12
12,M10I,5.18
13,M10D,5.29
14,M10Y,4.94
15,M10L,5.34
16,M10F,4.88
17,M10R,5.64
18,M10W,4.96
19,M10N,4.23
20,M10Q,5.28
21,M10C,5.02
22,M10A,4.25
23,M10E,5.43
24,M10T,5.35

row,Variant,protein stability index
1,M10K,5.31
2,M10G,4.71
3,M10P,4.75
4,M10S,5.43
5,K24E,5.11
6,K24P,4.93
7,K24D,4.97
8,K24S,4.43
9,K24R,5.06
10,K24G,4.19
11,K24N,5
12,K24T,5.15
13,K24F,4.83
14,K24M,4.96
15,K24W,3.98
16,K24Q,4.59
17,K24L,4.01
18,K24A,5.14
19,K24V,4.62
20,K24I,4.68
21,K24H,4.71
22,K24C,5.2
23,K22G,4.78
24,K22H,5

row,Variant,protein stability index
1,K22Q,4.74
2,K22T,5.11
3,K22W,4.19
4,K22F,4.63
5,K22L,4.39
6,K22C,4.92
7,K22Y,5.07
8,K22R,5.31
9,K22E,4.96
10,K22V,4.39
11,K22D,5.24
12,K22N,4.83
13,K22P,5.58
14,K22A,5.4
15,K22I,3.59
16,K22M,4.47
17,S23A,5.7
18,S23K,5.06
19,S23M,3.93
20,S23D,5.36
21,S23W,4.47
22,S23H,4.53
23,S23V,5.27
24,S23Q,5.1

row,Variant,protein stability index
1,S23F,4.6
2,S23L,4.76
3,S23R,5.24
4,S23I,4.78
5,S23E,5.52
6,S23Y,5.07
7,S23N,5.12
8,S23P,5.54
9,S23G,5.07
10,S23C,5.32
11,S23T,5.31
12,T19E,5.74
13,T19G,4.94
14,T19Q,5.08
15,T19D,4.97
16,T19S,5.62
17,T19W,4.58
18,T19P,4.89
19,T19H,5.02
20,T19M,5.15
21,T19L,4.94
22,T19Y,4.75
23,T19C,4.99
24,T19F,5.29

row,Variant,protein stability index
1,T19I,4.9
2,T19V,4.7
3,T19A,5.16
4,T19K,5.17
5,T19R,5.26
6,T19N,5.1
7,K14H,5.36
8,K14C,4.41
9,K14V,5.07
10,K14D,5.14
11,K14N,5.51
12,K14I,3.76
13,K14R,5.37
14,K14P,5.37
15,K14A,4.99
16,K14F,4.48
17,K14S,5.03
18,K14M,5.45
19,K14Y,5.22
20,K14L,4.83
21,K14W,4.73
22,K14T,5.03
23,K14Q,4.99
24,K14G,5.19

row,Variant,protein stability index
1,K14E,5.07
2,C16M,5.27
3,C16S,5.33
4,C16R,5.47
5,C16E,5.47
6,C16T,5.63
7,C16K,4.96
8,C16A,4.69
9,C16F,4.93
10,C16H,4.66
11,C16I,4.71
12,C16Q,5.45
13,C16V,5.53
14,C16G,4.11
15,C16D,5.67
16,C16L,5.05
17,C16P,5.57
18,C16W,5.08
19,C16N,5.46
20,C16Y,5.54
21,R9Y,5.29
22,R9C,5.05
23,R9L,4.04
24,R9F,5.14

row,Variant,protein stability index
1,R9A,5.33
2,R9H,4.49
3,R9T,5.11
4,R9K,5.33
5,R9P,4.4
6,R9G,4.9
7,R9I,4.08
8,R9E,5.12
9,R9W,4.48
10,R9S,5.47
11,R9V,5.09
12,R9Q,5.58
13,R9M,5.07
14,R9D,5.64
15,R9N,5.38
16,N21Y,4.77
17,N21Q,5.51
18,N21M,4.81
19,N21P,4.94
20,N21T,5.42
21,N21E,5.44
22,N21F,4.57
23,N21C,4.95
24,N21K,5.33

row,Variant,protein stability index
1,N21L,4.93
2,N21I,4.7
3,N21H,5
4,N21R,5.25
5,N21W,4.4
6,N21D,5.17
7,N21G,4.78
8,N21S,5.46
9,N21A,5.23
10,N21V,4.11
11,M12S,5.9
12,M12R,4.72
13,M12E,5.78
14,M12V,4.45
15,M12I,5.03
16,M12Y,5.16
17,M12G,5.76
18,M12K,4.79
19,M12L,4.79
20,M12Q,5.03
21,M12N,4.67
22,M12A,5.02
23,M12T,5.54
24,M12W,3.86

row,Variant,protein stability index
1,M12P,5.61
2,M12H,5.44
3,M12F,4.95
4,M12C,5.06
5,M12D,5.18
6,K18L,4.75
7,K18S,4.78
8,K18H,5.3
9,K18D,5.07
10,K18P,5.87
11,K18T,4.89
12,K18N,5.18
13,K18E,5.6
14,K18V,4.75
15,K18A,4.86
16,K18Y,4.59
17,K18F,3.92
18,K18G,4.83
19,K18Q,5.57
20,K18M,4.67
21,K18C,4.96
22,K18I,4.9
23,K18R,4.81
24,K18W,4.35
